Source: the DeepSol protein solubility set

Assay: soluble on expression in E. coli; label from the status in PepcDB or PDB records

Sequence | soluble on expression in E. coli
MSLKNLHPIMLAGTGSDVGKSVIAAALCRIFKQDGYRPAPFKAQNMALNSYATPEGLEIGRAQAVQAEAAGVPCHTDMNPLLLKPSSDHTSQVVLNGRPIGNRNAFEYFRKEGREELRQEVNAAFDRLAARYNPIVMEGAGSISEINLRDTDLVNMPMACYADADVILVADIDRGGVFASVYGSVMLQTPEDKKRIKGVIINKFRGDIRLFESGVKMMEDLCGIPVLGIIPYYRNIHIEEEDSVGLDYKRMQAVEGKINIAVVLLRHLSNFTDFNRLERDERVHLYYTNNTEDLAKADIILLPGSKSTLDDLYELRRNGVAQAVLRAHREGVTVMGICGGYQLMGLEIHDPEGVEGEIRQLPGLGLLPVITTMQGEKVTRQVNFHFLENAETCQGYEIHMGETRPVPGEAVVPLNKLEDGGEDGCFVNQKCMGSYIHGILDNQAFIDYLLEPYAEKLEEGHHHHHH | not soluble
MSLKNNSEVFNVLHFSDIHIQLRYNVGAEANCTNLPCGAPDSYNKQLLPSSYNFSSYYQHFSPNVAKMEFSFYPDAHYDENSQYIKGDYYDFPLYRGWNFKNAPATSFGGYLTDSPAVLMNSSLISMAKMHKEKNFEFAIFTGDVVDHLLLSCTPEYTKEEEVKSFKAMKFFFNNLTVLPALGNHETGEYGQLSPIAYDFNGSYSWNQDEMVDLWINNEWFPAKDRYDLKSHYAGFSYVTNRGLKVIGLNSNAYYQKNLWSYIDLSTNPDLFGQWEFLVNELIESEEKGQRVWIMAHIPTTDYDTLPLQSRIFGKIVERFSPYTIANIFFAHTHMDQTHILYSTNSSKEAEDIINMSWVMQSVTPLANYNPSWRYYEVENESFNIINSFNYMTKLNDTEGHHHHHH | soluble
MSLKNVTEKNREIYKQLNDRQEEISRLQRDLIQTKEQVSINSNKILVYESEMEQCKQRYQDLSQQQKDAQKKDIEKLTNEISDLKGKLSSAENANADLENKFNRLKKQAHEKLDASKKQQAALTNELNELKAIKDKLEQDLHFENAKVIDLDTKLKAHELQSEDVSRDHEKDTYRTLMEEIESLKKELQIFKTANSSSDAFEKLKVNMEKEKDRIIDERTKEFEKKLQETLNKSTSSEAEYSKDIETLKKEWLKEYEDETLRRIKEAEENLKKRIRLPSEERIQKIISKRKEELEEEFRKKLKENAGSLTFLDNKGSGEDAEEELWNSPSKGNSERPSAVAGFINQKNLKPQEQLKNVKNDVSFNDSQSMVTNKENNIVDSSAAGNKAIPTFSFGKPFFSSNTSSLQSFQNPFTASQSNINTNAPLRTLNIQPEVAVKAAINFSNVTDLTNNSTDGAKITEIGSTSKRPIESGTSSDPDTKKVKESPANDQASNEEGHHHHHH | soluble
MSLKNYQSSDPFKEARVSSGCAHMNDQDDPVTMILRLKDVRKTAHNWKTFQSGAAPGRIVIPSEVNIRDTRQIPFEVDPPLHGAFRSLLDPWFKRPLKAQYQETLAQQVNALVDDVLKADSIDVVEDFALCLQSRALTLLLNTDADEADTWIGWGTHVFRSEDDPLDGDKAAILYDYIDEKIKASSPNPEGDLYSVLLAAEVEGKKLTHEEIKGIMILTFAGGRDTVINAVTNTVSYFAQHPESLARLRNEPEIIGRAIEELIRYFTPLTQMGRVVTQDTQVCEHAIKADSRVSLCWASANRDESVFESPNDVILDRKLNPHVSFGFSHHNCLGATHARQIMRVLIETLMAKVGSIDIIDFEENIEYLGEFERKVGFHKLHVNIHPREGHHHHHH | soluble
MSLKPINVVIIENENISRVGAAAILSETGKIQVCGLAKTGKEGIETVDQQKPDIVVINIDLPDINGTDVISLIKCKHTSIKIVVMTANSSRDTINAAISNGADCYYCKNNAREEVGERFIEAVMAAYNNESWIDPTINRILIDNLRSNDTADRDSLDLLSDFSNKEITVLKLAAGGMKNNEIANVMYVSEGTVRSYLHNSFIKLGVKDRLNAIREAIRLGILSFADEGHHHHHH | soluble
MSLKPLFGEKDESNISPITKQLTEEEASKVIAEVNGEQILYKDFYFIYSQQAAYYGLTTEDEDSLSDDTKEILNTIKKELLTQLIQQKLAKQKAKEAGYEVTKERLDEASEAIEEMIRNMAEQMKLSSPSEAESRDFLKEARDFINSELKAMRITMDEYIRDTAEYMIVTDFMEDLTKDIVVTDEEIKKYYDEQLKIQQENPEEAAYAEVQLIQPASSRVKHILIALPEEEQQEYQNLKSEGKDEEAEAYLKEKLEAIKPKAEEVLNKAKNGEDFEALIKEYGEDPGMESEQYKDGYTVTKNSGFIKSFEDASLALGVGEISDLVEGPYGYHIIKVYEKTEAKPYTQEEKKSEIESLLKSQKKTNFMNEKMKEWESASTIVRHDDEGHHHHHH | soluble
MSLKPNIQFEITGASRILPASGPITNLEILKNFPRTADKSQGFLEKFAEKIGEEFGFHTRYWCHKPWESLDNSRELSSESLAMQAVDKLITHSMSKDVDAFLLGSTTNKRFTGSQAAAVLGNLKLNAPAYDLKTGCSTSLSTLHFAYALMALGYQKILVCCSETLSKVIDPENEKTWIGLADGAASLLLEKSKEGSFTIEKSFFSTDGQYVNAFTTQGVFPPTHEQIDSVGYHLVGDETLMKELAYSRYMQMLDHLLPTEKEKNEITWVIPHQVNRKLIDQVLHENNLNNKIIIWDADTIGNIGGASVLYTLARAVEEKLFDRSGKILLMSVGGGLSYAGQVLNYQEGHHHHHH | soluble
MSLKPQKILIATDGSEASEKAADFGIETLRFEGAKVYAVYVIDTGSYGSVPVDEKKFKKIERLEEIGHKATSYVEKKATAAGMKVESIVLKGNPAEEIVDFAEEQRVDMIVVGSLGKSGIKRFMLGSVSEKVVRRAKIPVLVVREQKEIKPQKQILIAADCSKATEKAVDFGIEIAKLNGAKVYAVHVIDPIFNDLMEEAWAENAYEQFKKIGREAVSYVEEKANAAGVKVESAVLEGNPAEEIVDFAEEQKVDMIVVGSLGKSGYEQFAIGSVSSKVLRNAKVPVLIVHDIYEFVELFRRCQKSEEVLTPVAGEKEGHHHHHH | soluble
MSLKPTDLNLIPIFIAIYEERNLSRAAARLDITQPAVSKALARLRDIYDEPLFHRSSSGVEPTSFAVDIYPAMVAAIKNFTSTLSASVEFDPKVSNRIFSIACVSILSYELLPQLMKQIHELAPNIALEVHPLFTEDYESDLRLQRYDLIIDLAPRGRTVLKVEPVITERLMVVCNKDHPRIAESISQEQFFEEEHVAVSQWQSRKSMLSAEDIVDLDKRKIMYRAAGALEMLPVICGSEYIGLMPESMIKLFSNTYHVKALPFPFDVTTYDLCTIWHPSRTNESAHQWLRAQIKHAGKVIKEGHHHHHH | soluble
MSLKQIPLAERMRPKTLADYVGQQHLIGSGAVLRQMIEQGQTPSMILWGPPGVGKTTLAEIIAHEVDAPFYTLSAVSSGVKEVREVIADIESNRGNLFDKGGRAILFIDEIHRFSKSQQDSLLAAVERGIVTLIGATTENPSFEVIRPLLSRCQVYVLKPQSDEDLLLLAHRAIDRDELLAAKHPVLEETEALLLYAGGDARKLLNILDLLATSEVEDRLVITNEKIRQRLQENPAAFDKGGELHYDIASAFIKSIRGSDPDAAIYWLARLIDGGEEPSFIARRLIISASEDIGLANPNAMLIAMACAEALDRIGWPEGRIPLAEATIYLATSEKSNSAYLAIDSALEYVRQSGNLPVPLHLRNAPTRLMADLDYGKGYKYSHDFPEHFVSQQYLPDKAANTSFWTPQMHTVHEAKLGERMKRWWKREKSQKDEGHHHHHH | soluble
MSLKQISIRDVAALAGVSVGSASRVINGAANVTPDVRERVDRAIAALRYRPNHAAQSLRSRTSKTIGCMFSDVANPLYARAFRALEEHFRREGYMLLLANGLNDAEREIDIIQTFQLRGMDGVILAPGNERHPGVLDAVRRLSMPAVIYDRDLAVDADAVLFDHVAGVKAAIHHLVELGHTRIALALWQVKSRPVRRRIEGYKAAFKAAGLPVPDLILQEPTPTSSAFDDVTRLLQLPDPPTAFLAQGTHTLTSTLRAIAKQGLRVPEDVSVIGIGDTDFAQTYDPPLTVLRTPTDEVAAHAVEMLLSRLAAKGDASLSPRKALIQFDLILRESCAPVAREGHHHHHH | not soluble
MSLKQQVPLSTATVSMVHSVPELMVSSEQAEQLGREDQQRLHRNRKLVLMVDLDQTLIHTTEQHCQQMSNKGIFHFQLGRGEPMLHTRLRPHCKDFLEKIAKLYELHVFTFGSRLYAHTIAGFLDPEKKLFSHRILSRDECIDPFSKTGNLRNLFPCGDSMVCIIDDREDVWKFAPNLITVKKYVYFQGTGDMNAPPGSRESQTRKKVNHSRGTEEGHHHHHH | not soluble
MSLKRISIKDVALKAGVSIASVSYVLNNKIDSRIPQETIDKVKHAAEELNYRPNNIAKSLKTQRTHIIGLVVADIANPYFSQLARIIEDEANKLGYTLMIGSSDENAEKFEALINMFADRQADGLIIAPVENSEKCLLKLQKQKIPFVLIDRYLSGVEADSIQINNYDISQKVTEHLINGGYKNTLLVAYKTQLQHLLQRTQAFLNTLEKHQIQNSQVLLADKDYIDRDINTGLENMLQNAVKPDAIFFTSNKLAVSGLKKLTQLGINIPQDIAVAAFDETEAYELFPVPLTYVKQPLSAIGTTAVKMLNEKINIKNLPLQNVTLHAELHIGQSTKSKEGHHHHHH | soluble
MSLKRTVDFSMFRCPLCDSSMDAASGKSLICTERGHTFDLSRHGYVNFLTKPVKTSYGAELFEARSRLIGECGFFDPLHDAIAELISHPKSGHEAFTILDSGCGEGSHLNALCGFDYAGKAAIGTGIDLSKDGILKASKAFKDLMWAVADVARAPFHDRQFDVVLSIFSPSNYAEFHRLLKNDGMLIKVVPRSDYLIELRQFLYTDSPRRTYSNTAAVERFTANAAHSRPVRLRYVKTLDQQAIHWLLKMTPLAWSAPKDRVSLLKEMKSADITVDVDILIGMKEGHHHHHH | soluble
MSLKRYRTLLFDVDDTILDFQAAEALALRLLFEDQNIPLTNDMKAQYKTINQGLWRAFEEGKMTRDEVVNTRFSALLKEYGYEADGALLEQKYRRFLEEGHQLIDGAFDLISNLQQQFDLYIVTNGVSHTQYKRLRDSGLFPFFKDIFVSEDTGFQKPMKEYFNYVFERIPQFSAEHTLIIGDSLTADIKGGQLAGLDTCWMNPDMKPNVPEIIPTYEIRKLEELYHILNIENTVSEGHHHHHH | soluble
MSLKSHKLLYQLKNKLTWLPILILAACQNNIIYHSYAPVPLDGWDKSDTLVYTLPNSIPAGNYEAEIGIRYQESYPYRDIWLEVSHNTKDTLTYVTDTLQLFLVDEAGNKTGNGLCGLYQCDLPYKASIPIRTEGSARTFRIVHIMTDNPLTGISDIGIRLRKPENEGHHHHHH | not soluble
MSLKSIILEDANAKLREDAHTFVFDGHAGVKGRVDFARLGSNNPIEDDWDLKIAKGVGGTKTLYAGVYDGHAGWATSQVLRNALVPYVSGALSSLTPTTSTELVDDAIQKAFVRLDNRIFDTALKAVESGLDQGTASVISAVAPAIAGSCALLTMYEPVTSTLRTAVAGDSRAVRGAWSSNANKYETDILSIDQTGFNQLEVERLDKEHPGQLHSMLNLDSGRLFGLAVTRAFGDHRLKWPAKVIRKVQDDYYGTPPRPNYTTPPYLTARPEVTTRKIQTEDFVILGSDGLWDMISNEDAVTCISRWLSAKKSGKPEPFKETKFEGKLEDGWQATPEHHVIEDLDNAAVCLVKNAFGGSRRGLFLGAMTTYAPMSRNVRDDITVQIIFFKDPYEKEGHHHHHH | soluble
MSLKSILIMGGSDFIGSALAKRLIKCGYQIDILTNGKKEIDYNGFKEHLICDRKVRKDMENIITGRKYDYIYDMTAYTKEDVSNLIDFISMDNLKKYIVLSAGAVYKDSGRNIKEENEKGENENWGKYGLNKKEAEDFIINSPIPYIIIRPTYIYGENNNLYREYYFFEKIEKNEKIPVPKGKQVSNQFIYIGDLVKVLESIMKNPHVREAYNVTNPQLISWDDLIYTCGEIIGKEPIIKYVDMEKVEFRERTYFPFRNIDFNLDINKLIEHGLYIPNVLLKEGLTATYKWFSANKPKMHDRKMNKVESVMQIEGHHHHHH | soluble
